Experimental findings from paper PMC12174366 (Nature Communications, 2025) are described below.

The series deals with the molecule itself. Description: cryo-EM structure.

B1: full length human TRPML1 with the V432A/A433G mutations (natural protein, UniProt Q9GZU1 1-580, looked up)
chain: MTAPAGPRGSETERLLTPNPGYGTQAGPSPAPPTPPEEEDLRRRLKYFFMSPCDKFRAKGRKPCKLMLQVVKILVVTVQLILFGLSNQLAVTFREENTIAFRHLFLLGYSDGADDTFAAYTREQLYQAIFHAVDQYLALPDVSLGRYAYVRGGGDPWTNGSGLALCQRYYHRGHVDPANDTFDIDPMVVTDCIQVDPPERPPPPPSDDLTLLESSSSYKNLTLKFHKLVNVTIHFRLKTINLQSLINNEIPDCYTFSVLITFDNKAHSGRIPISLETQAHIQECKHPSVFQHGDNSFRLLFDVVVILTCSLSFLLCARSLLRGFLLQNEFVGFMWRQRGRVISLWERLEFVNGWYILLVTSDVLTISGTIMKIGIEAKNLASYDVCSILLGTSTLLVWVGVIRYLTFFHNYNILIATLRVALPSVMRFCCCAGVIYLGYCFCGWIVLGPYHVKFRSLSMVSECLFSLINGDDMFVTFAAMQAQQGRSSLVWLFSQLYLYSFISLFIYMVLSLFIALITGAYDTIKHPGGAGAEESELQAYIAQCQDSPTSGKFRRGSGSACSLLCCCGRDPSEEHSLLVN
As to B1, the binding result is recorded as “binds”.
